Target: T1, BirA-tagged, biotinylated mouse JAML ectodomain (Mus musculus, biotin on the BirA-tag (by BirA biotin protein ligase))
T1 chain: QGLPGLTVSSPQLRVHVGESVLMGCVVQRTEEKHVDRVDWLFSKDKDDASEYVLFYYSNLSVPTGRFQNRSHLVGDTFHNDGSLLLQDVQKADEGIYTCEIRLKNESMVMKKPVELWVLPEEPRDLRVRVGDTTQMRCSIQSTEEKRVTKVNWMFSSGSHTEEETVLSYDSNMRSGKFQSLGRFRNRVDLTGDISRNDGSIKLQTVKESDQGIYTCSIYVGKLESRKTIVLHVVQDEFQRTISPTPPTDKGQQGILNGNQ
Test: SPR

Kd: ~8 nM
koff: ~0.001 s⁻¹
B1: HL4E10 Fab (fragment of the hamster anti-JAML IgG (λ) HL4E10) (Fab, V domains shown)
VH: QVQLKESGPGLLQPSQTLSLTCTVSGISLSDYGVHWVRQAPGKGLEWMGIIGHAGGTDYNSNLKSRVSISRDTSKSQVFLKLNSLQQEDTAMYFCARHFYTYFDVWGQGIQVTVSS
VL: SYTLTQPPLVSVALGQKATITCSGDKLSDVYVHWYQQKAGQAPVLVIYEDNRRPSGIPDHFSGSNSGNMATLTISKAQAGDEADYYCQSWDGTNSAWVFGSGTKVTVL
